Experimental data published in the supplement of paper PMC7877785.
± gives the uncertainty stated by the source.

Test: self-splicing fitness, log relative to wild type (ln ratio); higher = more splicing; Tetrahymena group I intron in knt gene, E. coli kanamycin selection, DiMSum; sequences stand for … in CUCUCU…GGAGGGAAAAGUUAUCAGGCAUGCACCUGGUAGCUAGUCUUUAAACCAAUAGAUUGCAUCGGUUUAAAAGGCAAGACCGUCAAAUUGCGGGAAAGGGGUCAACAGCCGUUCAGUACCAAGUCUCAGGGGAAACUUUGAGAUGGCCUUGCAAAGGGUAUGGUAAUAAGCUGACGGACAUGGUCCUAACCACGCAGCCAAGUCCUAAGUCAACAGAUCUUCUGUUGAUAUGGAUGCAGUUCACAGACUAAAUGUCGGUCGGGGAAGAUGUAUUCUUCUCAUAAGAUAUAGUCGGACCUCUCCUUAAUGGGAGCUAGCGGAUGAAGUGAUGCAACACUGGAGCCGCUGGGAACUAAUUUGUAUGCGAAAGUAUAUUGAUUAGUUUUGGAGUACUCGUGGUCG
In short: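 Library with all eight P1ex-region intron nucleotides randomised, intron inside the knt kanamycin-resistance gene on pET-22b(+), in E. coli BL21(DE3). Cells grew overnight at 37°C or 30°C on LB agar with or without 25 μg/mL kanamycin (plus 100 μg/mL carbenicillin, 50 μM IPTG, 0.2% rhamnose), in six replicate transformations. Pooled colonies were amplicon-sequenced on Illumina HiSeq 2500. DiMSum fitness is the error-weighted combination of wild-type-normalised replicate fold changes, kanamycin versus none.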

| Sequence | self-splicing fitness (ln) (30 °C) | self-splicing fitness (ln) (37 °C) |
| --- | --- | --- |
| AAGUAGCAAUAUUACGGGAA | -2.74 ± 0.2 | -2.8 ± 0.23 |
| AAGUAGCAAUAUUACGGGCA | -1.25 ± 0.088 | -0.149 ± 0.098 |
| AAGUAGCAAUAUUACGGUAG | -2.85 ± 0.22 | -2.72 ± 0.2 |
| AAGUAGCAAUAUUACGGUCA | -0.974 ± 0.094 | -0.354 ± 0.1 |
| AAGUAGCAAUAUUACGGUUG | -2.78 ± 0.1 | -2.16 ± 0.11 |
| AAGUAGCAAUAUUACGUAGC | -3.25 ± 0.33 | -2.3 ± 0.31 |
| AAGUAGCAAUAUUACGUAUC | -2.36 ± 0.14 | -1.15 ± 0.11 |
| AAGUAGCAAUAUUACGUGAG | -1.57 ± 0.048 | -0.575 ± 0.066 |
| AAGUAGCAAUAUUACGUGGC | -2.22 ± 0.18 | -3.29 ± 0.39 |
| AAGUAGCAAUAUUACGUGGG | -3.49 ± 0.2 | -3.24 ± 0.23 |
| AAGUAGCAAUAUUACGUUUC | -3.93 ± 0.33 | -2.03 ± 0.21 |
| AAGUAGCAAUAUUACGUUUG | -2.41 ± 0.13 | -1.49 ± 0.13 |
| AAUAAGCAAUAUUACGAAGU | -3.44 ± 0.18 | -1.94 ± 0.17 |
| AAUAAGCAAUAUUACGAAUA | -1.54 ± 0.13 | -1.62 ± 0.15 |
| AAUAAGCAAUAUUACGACUU | -0.182 ± 0.065 | 0.451 ± 0.094 |
| AAUAAGCAAUAUUACGAGUA | -1.67 ± 0.19 | -0.925 ± 0.16 |
| AAUAAGCAAUAUUACGAUAU | -1.71 ± 0.11 | -0.747 ± 0.13 |
| AAUAAGCAAUAUUACGAUGU | -0.62 ± 0.076 | -0.682 ± 0.11 |
| AAUAAGCAAUAUUACGCCCC | 0.198 ± 0.2 | -0.311 ± 0.24 |

| Sequence | self-splicing fitness (ln) (30 °C) | self-splicing fitness (ln) (37 °C) |
| --- | --- | --- |
| AAUAAGCAAUAUUACGCCCG | -1.39 ± 0.15 | -0.203 ± 0.18 |
| AAUAAGCAAUAUUACGCCGU | -1.24 ± 0.11 | -0.293 ± 0.11 |
| AAUAAGCAAUAUUACGCCUA | 0.0474 ± 0.09 | -0.183 ± 0.098 |
| AAUAAGCAAUAUUACGCGUA | -1.25 ± 0.14 | -0.929 ± 0.13 |
| AAUAAGCAAUAUUACGCUAC | -3.62 ± 0.34 | -1.82 ± 0.23 |
| AAUAAGCAAUAUUACGCUAU | -2.74 ± 0.16 | -2.24 ± 0.18 |
| AAUAAGCAAUAUUACGCUGG | -1.81 ± 0.17 | -1.5 ± 0.21 |
| AAUAAGCAAUAUUACGGACU | -0.768 ± 0.071 | 0.349 ± 0.1 |
| AAUAAGCAAUAUUACGGAUG | -2.21 ± 0.1 | -1.39 ± 0.1 |
| AAUAAGCAAUAUUACGGCAG | -0.454 ± 0.11 | -0.547 ± 0.16 |
| AAUAAGCAAUAUUACGGCUC | -0.468 ± 0.13 | 0.129 ± 0.15 |
| AAUAAGCAAUAUUACGGGGG | -2.91 ± 0.19 | -2.75 ± 0.21 |
| AAUAAGCAAUAUUACGGUCA | -0.268 ± 0.084 | 0.155 ± 0.12 |
| AAUAAGCAAUAUUACGGUGC | -3 ± 0.15 | -2.26 ± 0.23 |
| AAUAAGCAAUAUUACGGUGG | -4.07 ± 0.17 | -2.31 ± 0.13 |
| AAUAAGCAAUAUUACGUACG | -0.966 ± 0.14 | -0.239 ± 0.17 |
| AAUAAGCAAUAUUACGUAGC | – | -2.38 ± 0.27 |
| AAUAAGCAAUAUUACGUCGC | -2.48 ± 0.16 | -1.21 ± 0.14 |
| AAUAAGCAAUAUUACGUGCU | -1.8 ± 0.074 | -1.29 ± 0.08 |
